This is an account of results in publication PMC3783164.

The target in the data set is SP1 (rhSP1) (Homo sapiens, UniProt P08047 1-785). Briefly: EMSA.
SP1 (rhSP1), sequence (P08047 whole entry): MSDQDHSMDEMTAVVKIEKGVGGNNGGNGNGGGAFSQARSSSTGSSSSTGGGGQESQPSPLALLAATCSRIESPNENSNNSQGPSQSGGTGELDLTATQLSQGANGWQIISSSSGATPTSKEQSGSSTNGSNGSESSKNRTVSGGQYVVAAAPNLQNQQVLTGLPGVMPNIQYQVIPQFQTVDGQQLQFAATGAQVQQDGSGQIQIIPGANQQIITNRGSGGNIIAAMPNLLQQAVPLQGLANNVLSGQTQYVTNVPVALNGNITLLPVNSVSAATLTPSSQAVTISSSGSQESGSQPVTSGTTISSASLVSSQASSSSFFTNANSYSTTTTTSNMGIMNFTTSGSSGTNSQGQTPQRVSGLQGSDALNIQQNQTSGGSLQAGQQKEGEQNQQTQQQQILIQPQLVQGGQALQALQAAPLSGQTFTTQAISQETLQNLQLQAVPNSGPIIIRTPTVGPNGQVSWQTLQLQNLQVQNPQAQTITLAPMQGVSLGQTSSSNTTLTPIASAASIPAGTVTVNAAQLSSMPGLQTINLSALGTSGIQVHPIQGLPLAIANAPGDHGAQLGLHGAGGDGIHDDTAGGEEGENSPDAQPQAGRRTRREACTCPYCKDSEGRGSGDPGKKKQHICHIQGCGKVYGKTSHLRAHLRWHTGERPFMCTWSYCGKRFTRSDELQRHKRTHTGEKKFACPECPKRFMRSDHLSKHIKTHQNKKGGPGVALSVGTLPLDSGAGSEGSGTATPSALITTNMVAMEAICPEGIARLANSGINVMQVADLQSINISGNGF

B1: MRE1.3 (dsDNA)
DNA 1: GCAGCAGCCTCCTCCCCCCGCACGGTGTGAGCGCCCGACGCGGCCGAGGCGGCCGGAGTCCCGAG
DNA 2: CTCGGGACTCCGGCCGCCTCGGCCGCGTCGGGCGCTCACACCGTGCGGGGGGAGGAGGCTGCTGC
B1: the binding result is recorded as “binds”.

B2: MRE1.3a (25 bp) (dsDNA)
DNA 1: GCAGCAGCCTCCTCCCCCCGCACGG
DNA 2: CCGTGCGGGGGGAGGAGGCTGCTGC
On to B2, for which the binding result was “binds”.
